Assays:
[1] = target: LexABD-Rac1G12V (fusion of the LexA DNA binding domain with Drosophila Rac1 G12V) (Drosophila) (UniProt P40792); assay: two-hybrid; same fusions; quantification of ß-galactosidase activity in liquid assays on total protein extracts, three measurements
[2] = target: LexABD-Rac1G12V (fusion of the LexA DNA binding domain with Drosophila Rac1 G12V) (UniProt P40792); assay: yeast two-hybrid, ß-galactosidase activity in total protein extracts; settings: parent: est. 6.4; read off a plot

Row | Substance | response (ß-Galactosidase units) [2] | fold lower interaction (ß-galactosidase activity) than wild-type LbGAP [1] | also measured
1 | GAL4AD-LbGAP (fusion of the GAL4 activation domain with LbGAP) (natural protein) |  |  | ß-galactosidase activity relative to that of LbGAP with Rac2G12V [1]: 2 fold
2 | GAL4AD-LbGAP (fusion of the GAL4 activation domain with LbGAP) K111A | 0.38 |  | 
3 | LbGAPS190A (GAL4 activation domain fusion) (natural protein) |  | 3 fold | 
4 | LbGAPR74A (GAL4 activation domain fusion) (natural protein) |  | 3 fold | 
5 | GAL4AD-LbGAP (fusion of the GAL4 activation domain with LbGAP) R115A | 0.34 |  | 

— PMC2156102
